Assay: yeast display, Sf9 membrane polyspecificity reagent, FACS + sequencing; frameworks hold sequencing errors
Outline: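 Synthetic nanobody libraries on Saccharomyces cerevisiae BJ5465 were galactose-induced for 36–48 hours, stained 1 hour at 4 °C with 10% biotinylated, detergent-solubilized Sf9 membrane reagent and enriched on streptavidin microbeads. FACS then separated cells into low and high (top ~1%) gates by anti-HA (expression) and streptavidin (reagent binding) fluorescence. Genes were colony-PCR amplified, MiSeq 2 × 250 sequenced and CDR-length filtered. A clone's polyreactivity label is that of its gate of origin.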
With “QVQLVESGGGLVQAGGSLRLSCAASGFIFPGYAMGWYRQAPGKERELVATISRRGGSTYYADSVKGRFTISRDNAKNTVYLQMNSLQPEDTAVYYCNRIVTYGWQYDYDYWGQGTQVTVSS” the “polyreactivity (PSR sort gate)” value was “high polyreactivity”.
In the case of “QVQLVESGGGLVQAGGSLRLSCAASGFIFPHYTMGWYRPAPGKERELVAAISSSGGSTYYADSVKGRFTISRDNANNTVYLQMNSLKPEDTAVYYCAADWSITYGDGGYWGQGTQVTVSS”, the “polyreactivity (PSR sort gate)” value is reported as “low polyreactivity”.
For “QVQLVESGGGLVQAGGSLRLSCAASGFIFPNNAMGWYRHAPGKERELVARISYGGGDTHYADSVKGRFTISRDNAKNTVYLQMNSLKPEDTAVYYCAVKDGQDDYWGQGTQVTVSS”, the “polyreactivity (PSR sort gate)” value was “low polyreactivity”.
With “QVQLVESGGGLVQAGGSLRLSCAASGFIFPRYAMGWYRQAPGKERELVAAISYSGGSTYYADSVKGRFTISRDNAKNTVYLQMNSLKPEDTAVYYCNAYFLSQYQRAYRDDYWGQGTQVTVST” the “polyreactivity (PSR sort gate)” value was “high polyreactivity”.
With “QVQLVESGGGLVQAGGSLRLSCAASGFIFPRYAMGWYRQAPGKERELVAAISYSGGSTYYADSVKGRFTISRDNAKNTVYLQMNSLKPEDTAVYYCNTAPWWRTSSDYEYWGQGTQVTVSS” the “polyreactivity (PSR sort gate)” value was “high polyreactivity”.
For “QVQLVESGGGLVQAGGSLRLSCAASGFIFPRYTMGWYRQAPGKERELVASITRGVRTHYADSVKGRFTISRDNAKNTVYLQMNSLKPEDTAVYYCARRNDYVYTRHFDSWGQGTQVTVSS”, the “polyreactivity (PSR sort gate)” value was “high polyreactivity”.
For “QVQLVESGGGLVQAGGSLRLSCAASGFIFPTYAMGWYRQAPGKEREFVASITRRGGSTYYADSVKGRFTISRDNAKNTVYLQMNSLKPEDTAVYYCAAGYYGFRGGGSDYWGQGTQVTVSS”, the “polyreactivity (PSR sort gate)” value was “high polyreactivity”.
With “QVQLVESGGGLVQAGGSLRLSCAASGFIFPTYAMGWYRQAPGKERELVATITTNAGGTYYADSVKGRFTISRDNAKNTVYLQMNSLKPEDTAVYYCAHDYDGYVWDTEYDYWGQGTQVTVSS” the “polyreactivity (PSR sort gate)” value was “low polyreactivity”.
In the case of “QVQLVESGGGLVQAGGSLRLSCAASGFIFPVYTKGWYRQAPGKERELVAAITQIGGSTHYADSVKGRFTISRDNAKNTVYLQMNSLKPEDTAVDYCNAVPSYGTEYDYWGQGTQVTVSS”, the “polyreactivity (PSR sort gate)” value is reported as “low polyreactivity”.
With “QVQLVESGGGLVQAGGSLRLSCAASGFIFPVYTMGWSRQAPGKERELVGAITQIGGSTHYADSVKGRFSISRDNAKNTVYIQMNSLTPDDTAVYYCNAVPSYGTEYDYWGQGTHVTVSS” the “polyreactivity (PSR sort gate)” value was “low polyreactivity”.
With “QVQLVESGGGLVQAGGSLRLSCAASGFIFPWYAMGWSRQAPGKERELVAIISWDTGSTYYADSVKGRFTISRDNAKNTVYLQMNSLKPEDTAVYYCVAYVGSTYSAPEYYWGQGTQVTVSS” the “polyreactivity (PSR sort gate)” value was “low polyreactivity”.
For “QVQLVESGGGLVQAGGSLRLSCAASGFIFPWYAMGWYRQAPGKERELVAIISWDTGSTYYADSVKGRFTISRDNAKNTVYLQMNSLKPEDTAVYYCAAAYYYYVSGWFDYWGQGTQVTVSS”, the “polyreactivity (PSR sort gate)” value was “low polyreactivity”.
In the case of “QVQLVESGGGLVQAGGSLRLSCAASGFIFPYAMGWYRQAPGKEREMVAAISSTDGSTYYADSVKGRFTISRDNAKNTVYLQMNSLKPEDTAVYSCNAPFSFARYPSSWHYWDYYYWGQGTQVTVSS”, the “polyreactivity (PSR sort gate)” value is reported as “low polyreactivity”.
With “QVQLVESGGGLVQAGGSLRLSCAASGFIFPYFAMGWYRQAPGKERELVAAISGSGGSTYYADSVKGRFTISRDNAKNTVYLQMNSLKPEDTAVYYCAASARRLNMGYWGQGTQVTVSS” the “polyreactivity (PSR sort gate)” value was “high polyreactivity”.
In the case of “QVQLVESGGGLVQAGGSLRLSCAASGFIFPYNAMGWYRQAPGKERELVAAITYRDGSTYYPDSVKGRFTISRDNANNTVYGQMNSLKPEDTAVYYCAADRYVYWDLYGYWGQGTQVTVSS”, the “polyreactivity (PSR sort gate)” value is reported as “low polyreactivity”.
With “QVQLVESGGGLVQAGGSLRLSCAASGFIFPYYAMGWYRQAPGKERELVAAISARGGSTYYADSVKGRFTISRDNAKNTFYLQMNRLKPEDTAVYYCAAPYPRWTGKDYDYWGQGTQVTVSS” the “polyreactivity (PSR sort gate)” value was “high polyreactivity”.
In the case of “QVQLVESGGGLVQAGGSLRLSCAASGFIFPYYAMGWYRQAPGKERELVAAISSSGGRTYYADSVKGRFTISRDNAKNTVYLQMNSLKPEDTAVYYCNARPNPYLGYGYWGQGTQVTVSS”, the “polyreactivity (PSR sort gate)” value is reported as “high polyreactivity”.
For “QVQLVESGGGLVQAGGSLRLSCAASGFIFQGNAMGWYRQAPGKEREFVAAISWSGGRTYYADSVKGRFTISRDNAKNTVYLQMNSLKPEDTAVYYCAVTPVRFASGGAWMDYWGQGTQVTVSS”, the “polyreactivity (PSR sort gate)” value was “high polyreactivity”.
With “QVQLVESGGGLVQAGGSLRLSCAASGFIFQRNAMGWYRQAPGKERELVAAIRGTGGSTYYADSVKGRFTISRDNAKNTVYLQMNSLKPEDTAVYYCNRLSSYHMDYWGQGTQVTVSS” the “polyreactivity (PSR sort gate)” value was “high polyreactivity”.
For “QVQLVESGGGLVQAGGSLRLSCAASGFIFQRYAMGWYRQAPGKESELVAAISSSGGSTYYADSVKGRFTISRDNAKNTVYLQMNSLKPEDTAVNYCAARVPPRTLAYYYWGQGTQVTVSS”, the “polyreactivity (PSR sort gate)” value was “high polyreactivity”.
With “QVQLVESGGGLVQAGGSLRLSCAASGFIFQYYAMGWYRQAPGKERELVAAINWSGGSTYYADSVKGRFTISRDNAKNSVYLQMNSLKPEDTAVYYCAADEYTSGYEYWGQGTQVTVSS” the “polyreactivity (PSR sort gate)” value was “high polyreactivity”.
With “QVQLVESGGGLVQAGGSLRLSCAASGFIFQYYAMGWYRQAPGKERELVAAITPSGTSTYYADSVKGRFTISRDNAKNTVYLQMNSLKPEDTAVYYCAVRYYFVDFHSTTGYPYSYDYWGQGTQVTVSS” the “polyreactivity (PSR sort gate)” value was “low polyreactivity”.

Reference: the nanobody polyreactivity screen of Harvey et al. (2022)
